Test: soluble on expression in E. coli; label from the status in PepcDB or PDB records
In the case of “MVKNGRDPPERNFYCTEKEETAPPLMNIFDDFKSQIEREIMTIFLKTAYESLLSIAISTEIIVPEDETRSLEKEVIKLMKLMKLMNLLEPLGNRVSRLMGLVRNAEEHRERIVKRNQESDVREIFKIAASRTKTRFHKALQKESSSSSMKWGFTEAKDEVLSLGIRLTHALIKLTLLRVKKNDREKQLLLRDWIFDESYEKQSALMYLLDYLLYKAEEFAASVVVEESGNDHHRQHILEEDRIGDDILTRISEAIFILQLLAMNLSRNVLTERDLIATNDQLLRCVRDVKFVESTIVVLMKGRSLKLKHKGKQSLLMKERTETIFWAKVNAELNKCWGESFWKYVEAARHLEAVVSSQQIVYTLCKLFVFGFES”, the “soluble on expression in E. coli” value is reported as “not soluble”.
For “MVKVGYIQMEPKILELDKNYSKAEKLIKEASKEGAKLVVLPELFDTGYNFESREEVFDVAQQIPEGETTTFLMELARELGLYIVAGTAEKSGNYLYNSAVVVGPRGYIGKYRKIHLFYREKVFFEPGDLGFKVFDIGFAKVGVMICFDWFFPESARTLALKGAEIIAHPANLVMPYAPRAMPIRALENRVYTITADRVGEERGLKFIGKSLIASPKAEVLSIASETEEEIGVVEIDLNLARNKRLNDMNDIFKDRREEYYFR”, the “soluble on expression in E. coli” value was “soluble”.
With “MVLALITLVVSAFLIPEVLADPCGDSNWRYFPQTNSCYKLIDENLPWTIAEFKCLFQGAHHVSIDSPEENQFVHELSRWSEIWTGAAFFGKDQHYVNSDGSRYGNFENWKDGRKPPMNRARRCIKMDGNGEWFQSCCKKKTFTICEKKAAYSASSYSGSNNSVNGFRFMRHRS” the “soluble on expression in E. coli” value was “not soluble”.
With “MVLFSEDHIQETRRRGRIEVICGSMFSGKTEELIRRMKRAKFARQRVEIFKPAIDTRYSEEDVVSHDSHSIASTPIDSSASILLFTSEIDVVGIDEAQFFDDGLIDVCRQLANNGIRVIIAGLDMDFKGNPFGPMPQLCAIADEVSKVHAICVKCGDLASFSHRTVKNDKQVLLGETAEYEPLCRECYLRARGEDGQKILEHHHHHH” the “soluble on expression in E. coli” value was “soluble”.
With “MVLFVDFLLEWLEMMRTRVRETTYASYNSGIRQSIIPYFMDKKLTLTDIEENPKYLQDFYQHELSKGLSPNSVLRRHANIRKALQHAFHLGLIKSNPADRIERPKKQLEHHHHHH” the “soluble on expression in E. coli” value was “not soluble”.
With “MVLLKEYRVILPVSVDEYQVGQLYSVAEASKNETGGGEGVEVLVNEPYEKDDGEKGQYTHKIYHLQSKVPTFVRMLAPEGALNIHEKAWNAYPYCRTVITNEYMKEDFLIKIETWHKPDLGTQENVHKLEPEAWKHVEAIYIDIADRSQVLSKDYKAEEDPAKFKSIKTGRGPLGPNWKQELVNQKDCPYMCAYKLVTVKFKWWGLQNKVENFIHKQEKRLFTNFHRQLFCWLDKWVDLTMDDIRRMEEETKRQLDEMRQKDPVKGMTADD” the “soluble on expression in E. coli” value was “soluble”.
With “MVLLLIVNKYWKVNDMKNEIQKNMDKYNPWHEDDFESYEDIARDVSLTTDKTFIEHYLLEVYSEENGHFDQENVHAMIEEIKNAI” the “soluble on expression in E. coli” value was “not soluble”.
For “MVLNSMRLFYILSQRDASSKNFNSSIYSRRSSRNSGCPGALFRSGRAVPFERVVGQQYFLKAYAILHSLNICRVEAGYIFDRKKTKFQDFLRFGRAGMASGVGGGSEGGPDDVKNSYIRVNGEPEIVYQ”, the “soluble on expression in E. coli” value was “not soluble”.
For “MVNPQAGVVVGYWHNWCGGAGYKGGVAPCVSLAQVNPQYNVVDISFMKVYGATGSIPTFKLDPAVGLSEAQFIDQIGELNRQGRAVLIALGGADAHIELRKGQEHDLANEIIRLVEKYGFDGLDIDLEQAAVTAADNQIVIPAALRIVKDHYRKQQKNFLITMAPEFPYLTTGGKYVPYINALEGYYDWINPQFYNQGGDGIYIEGIGWIAQNNDSLKQEFIYHISDALVNGTNGFTKIPHDKLVFGIPTNIDAAATGYVSDPNALFAAFEQLKNQGQPLRGLMTWSVNWDMGKNAAGQAYNESFIKAYGPFIHGQDITPPEPENGKPIFSGLSNTRVKLGGTFNAMDGVSAYDEEDKDLTQQIQVTGDVNTNQIGLYPLTYKVTDSDNNTTEQVRTVEVYNTKPELSGVSNTTIILATPFDAMAGVSATDAEDGNLTPNIRVEGEVDSNRVGQYQLTYSVSDSAGEQTRAVRLVTVQEQGAVCENLWSASKIYLGGDTVNYAGKIWLAGWWTQGEQPDLAGEWGVWKSKGDSDCDSGLPPVITPNFTVSGLASSYILNQGQVSINFNVNTNQAMELTANLTQEQRILASTTATINGNGAMVLQAESLEAGAYQVVISAKDKNLTQSYNVSLVQGDDGSEPVEYPAYVAGNQYQAGNIVTNAGGVYQCRPWPNSGWCSGSAPYYAPGTGSAWQDAWTKHLEHHHHHH”, the “soluble on expression in E. coli” value was “soluble”.
With “MVNRCFFFNRRICFMELFLLRHGKPDIRRSMAIRSVDMYSWIGEYDAAGILDSPDASTVAASEGKFIVSSPMPRALESVAALGLEPDIIIDELHEAPLPVFNIPLLKLTPLVWAALFRIFWMAGGSGGVETFSSVKIRAKLVSCELDKMAETHGSVLSVGHGFMNALVARELQKAGWKRQKVGPSGYWSGIKLVRLEHHHHHH” the “soluble on expression in E. coli” value was “soluble”.
With “MVPAAENLSPIPASIDTNDIPLIANDLKLLETQAKLINILQGVPFYLPVNLTKIESLLETLTMGVSNTVDLYFHDNEVRKEWKDTLNFINTIVYTNFFLFVQNESSLSMAVQHSSNNNKTSNSERCAKDLMKIISNMHIFYSITFNFIFPIKSIKSFSSGNNRFHSNGKEFLFANHFIEILQNFIAITFAIFQRCEVILYDEFYKNLSNEEINVQLLLIHDKILEILKKIEIIVSFLRDEMNSNGSFKSIKGFNKVLNLIKYMLRFSKKKQNFARNSDNNNVTDYSQSAKNKNVLLKFPVSELNRIYLKFKEISDFLMEREVVQRSIIIDKDLESDNLGITTANFNDFYDAFYN” the “soluble on expression in E. coli” value was “soluble”.
In the case of “MVRHRLPSSTYYTPAGEPEWSREMFGEQSIAVLSGAYRNPIEMARHVAARCGSYQPFFVMDVAAIERRLEALRVMLPRVRPNYAVACNADPVLARVLSNNIDVNFEVSNTAELELVSMNVEPSRAVFCSQLMTRKAIKNAVLAGCSTFVVESEKQVTDVMNASPEAEIILAVCLPYSTGEVPFGCSVDEIEEILDMAHLLGANVTGIYLELGLRATLEDYITSVHDARSIFETADQKFLTLRRVCFGNLSVPTGADGAVNNEFMSFCNSLNNVIDDLFESNIDFSASIGRFLVTNAFTLCTNVIGKRAMDAKFITNDDFDDGVGFVYQTNDGVYGSFGCKQMDIKPLCKPLDVENDSEEQLHFGTILGPTLDGTDVAQRLMKSRQLRVGEWLVWEQMGAFTIPVDSEHSVPPVYYYSGKECWQKLIHKDEQRRSPSPSVSDNEDIGSDGEGGYASSCEDSEAEMALEPLIEDLNEFF”, the “soluble on expression in E. coli” value is reported as “not soluble”.
In the case of “MVRIDLGIKGKKVIVTAASKGIGFATAKRFLEEGAKVIISSHDENNLRKAYERLKNLGEVNYIIADLTKPSDVENLIKSGYSTLGGLDVLVYVTGSPKPGNLFELTNEDWINAFYLLLMSAVIAVREAGKLMKSGGRIILSTSMTLKEPLPNLDLSNVVRLSLAGLIKVAARELGEKGILVNGVMPGWTLTDRVDQLVKDRAKREGRSEEEIIRDITRDVPLKRIGKPEEVANVILFLASELSTYVNGVLIPVDGGLIKATL”, the “soluble on expression in E. coli” value is reported as “soluble”.
In the case of “MVRIRRAGLEDLPGVARVLVDTWRATYRGVVPEAFLEGLSYEGQAERWAQRLKTPTWPGRLFVAESESGEVVGFAAFGPDRASGFPGYTAELWAIYVLPTWQRKGLGRALFHEGARLLQAEGYGRMLVWVLKENPKGRGFYEHLGGVLLGEREIELGGAKLWEVAYGFDLGGHKW”, the “soluble on expression in E. coli” value is reported as “soluble”.
In the case of “MVRKLKTHEQKLLKKTDFMSWQVDQQGKQGDMLRKFYVKKREHYALYNTLAAKSREVADLIKNLSESDPFRSKCTEDMLTKFYAAGLVPTSDTLERIGKVTGASFARRRLPVVMRNIGMCESVKTASDLVEQGHVRIGTKLVTDPAFMVTRSSEDMITWTKASKIKKHVMDYNNTRDDFDLMD”, the “soluble on expression in E. coli” value is reported as “not soluble”.
With “MVRRRTASPSPSAPVRSAPRPAAQSSFAAPPPRPAAAAPAYHPPAAPTPMGAPMGAPSQGPGLMKQMAATAGGVAIGSAVGHAVGGMFTGGGSSHAEQAPAAAAAPAGAPQASGYSQPCEFEWRQFVDCAQNQSDVSLCNGFNDIFKQCKARYA” the “soluble on expression in E. coli” value was “not soluble”.
With “MVSITSDAIRNALHKVKGPNFESDIVSLGLLSEILVVHGKVFFSITVPDGRVQEWESLRRSVEEVVSALDGVEAVFVTLTTERRPEMSSQLQRDEVFFAPKRRANRLLEKMPIEGVRHVVAVASGKGGVGKSTMAINIALALQDSGFKTGLMDADIYGPSLPRLTGLVNQKPQYIDGKKLHPLEKFGLKLMSMGFLVEEENPVVWRGPMVMAAVTQLLRDVLWGPLDVLVVDMPPGTGDAQLTLAQQVQLTGALIVSTPQDLALVDARKAMEMFMKVNVPILGLIENMSYFIAPDTGKRYDIFGYGGTRAEARRRGVPFLAEVPLDAALRSSSDDGIPIFVAKPDEEHTKLYRSIVGQIKNKFF” the “soluble on expression in E. coli” value was “not soluble”.
With “MVSLDKAVIARLRKGGEEFEVLVDPYLARDLKEGKEVNFEDLLAAEEVFKDAKKGERASVDELRKIFGTDDVFEIARKIILEGEVQITAEQRREMLEAKRKQIINFISRNTIDPRTNAPHPPSRIERALEEAKVHIDIFKSVEAQVKDIVKALKPILPLKFEEMEIAIKIPPEHTGRAISALYNFGGVTREEWQRDGSWICVMRIPSGMYGDLMDLLGKVAKGEALTKVLRRIG” the “soluble on expression in E. coli” value was “not soluble”.
For “MVSNAYQGIGSEYETLLKASGRENEVFKKRVGKDRVMATTVHGWWQETMWQRSSSLFTDGRICSCWRLSPTSSRGLQPTYQRKRDFTTGRYGKNACG”, the “soluble on expression in E. coli” value was “not soluble”.
With “MVSTHSSQYITDFTPVPAEPGKSPLALLAKTCETIGLPEGSSKKNGASSSSSPQGKKDEKNHILHHQHHQQQQQSKQKSSPRSTPQSKEPTLTFPGLPKPSFPMGMPGMMQGFPFFNPMMTAYGCFPGAFPMSQGFMGAQRLPCPFAMMRQPCANPACVQCPSSSSNAAKNGQMTAEMMSQFAAHPLFSMYAGMMPGVPTSSYQALLAASAAASTSAGPTDYSNVASTSKASPQPKPTAQKSQKSAKFPCNWVDSDVPCGKVFDEENELASHVKKMHAPSPSSSASSEQSTSTGKASRSSTTTPHRFNPYGKPVAPAPPTMQQMGMNMAMNPLVLPFSLQAMYSNRLMSTVAHQ” the “soluble on expression in E. coli” value was “not soluble”.
In the case of “MVSTLKRDEALFELIALEEKRQREGLELIASENFVSKQVREAVGSVLTNKYAEGYPGARYYGGCEVIDRVESLAIERAKALFGAAWANVQPHSGSQANMAVYMALMEPGDTLMGMDLAAGGHLTHGSRVNFSGKLYKVVSYGVRPDTELIDLEEVRRLALEHRPKVIVAGASAYPRFWDFKAFREIADEVGAYLVVDMAHFAGLVAAGLHPNPLPYAHVVTSTTHKTLRGPRGGLILSNDPELGKRIDKLIFPGIQGGPLEHVIAGKAVAFFEALQPEFKEYSRLVVENAKRLAEELARRGYRIVTGGTDNHLFLVDLRPKGLTGKEAEERLDAVGITVNKNAIPFDPKPPRVTSGIRIGTPAITTRGFTPEEMPLVAELIDRALLEGPSEALREEVRRLALAHPMP”, the “soluble on expression in E. coli” value is reported as “soluble”.
With “MVTITLYMNNNIEYISKIKKGEETSFRHFVNSYSKDLFYYAQCFVRSKETAEEVVSDVFLDVWRHREEIDEIKNIKAWLLTLTHNKAISYLRKAENSSEIASWEEIDDFQIIGNLQTPDEEMISKEEIAQINSLIQTLPPKCKVVFALAKIERLPYKEIADMLNISVKTINVHVAKALEIISNGLKK” the “soluble on expression in E. coli” value was “not soluble”.
With “MVTKEVGHDFLARLGKKRLRPGGVEATNWLIEQGQFSQDCHVLEVACNRCTTAIELAKTFGCQIDAVDLNPKVVKEAQERVAVEGLTRHITVSQASALSLPFPDNHFDIVINEAMLTMLNAQAKEKALNEYWRVLKPGGRLLTHDVAYEDPKTRQVLDELRQTIHVNVAPLSLTGWQALYQEHGFSQVTYHHGKMSLMTPRGMIKDEGLMNTLNIMRRGLKKENRQQFLKMRRFFTRTGKNLCYIAVKSVK” the “soluble on expression in E. coli” value was “not soluble”.
